Experimental data: PMC2814896

B1: OCT2 (hOCT2) (Homo sapiens) (protein)
chain: MPTTVDDVLEHGGEFHFFQKQMFFLLALLSATFAPIYVGIVFLGFTPDHRCRSPGVAELSLRCGWSPAEELNYTVPGPGPAGEASPRQCRRYEVDWNQSTFDCVDPLASLDTNRSRLPLGPCRDGWVYETPGSSIVTEFNLVCANSWMLDLFQSSVNVGFFIGSMSIGYIADRFGRKLCLLTTVLINAAAGVLMAISPTYTWMLIFRLIQGLVSKAGWLIGYILITEFVGRRYRRTVGIFYQVAYTVGLLVLAGVAYALPHWRWLQFTVSLPNFFFLLYYWCIPESPRWLISQNKNAEAMRIIKHIAKKNGKSLPASLQRLRLEEETGKKLNPSFLDLVRTPQIRKHTMILMYNWFTSSVLYQGLIMHMGLAGDNIYLDFFYSALVEFPAAFMIILTIDRIGRRYPWAASNMVAGAACLASVFIPGDLQWLKIIISCLGRMGITMAYEIVCLVNAELYPTFIRNLGVHICSSMCDIGGIITPFLVYRLTNIWLELPLMVFGVLGLVAGGLVLLLPETKGKALPETIEEAENMQRPRKNKEKMIYLQVQKLDIPLN
B2: OCT1 (hOCT1) (Homo sapiens) (protein)
chain: MPTVDDILEQVGESGWFQKQAFLILCLLSAAFAPICVGIVFLGFTPDHHCQSPGVAELSQRCGWSPAEELNYTVPGLGPAGEAFLGQCRRYEVDWNQSALSCVDPLASLATNRSHLPLGPCQDGWVYDTPGSSIVTEFNLVCADSWKLDLFQSCLNAGFLFGSLGVGYFADRFGRKLCLLGTVLVNAVSGVLMAFSPNYMSMLLFRLLQGLVSKGNWMAGYTLITEFVGSGSRRTVAIMYQMAFTVGLVALTGLAYALPHWRWLQLAVSLPTFLFLLYYWCVPESPRWLLSQKRNTEAIKIMDHIAQKNGKLPPADLKMLSLEEDVTEKLSPSFADLFRTPRLRKRTFILMYLWFTDSVLYQGLILHMGATSGNLYLDFLYSALVEIPGAFIALITIDRVGRIYPMAMSNLLAGAACLVMIFISPDLHWLNIIIMCVGRMGITIAIQMICLVNAELYPTFVRNLGVMVCSSLCDIGGIITPFIVFRLREVWQALPLILFAVLGLLAAGVTLLLPETKGVALPETMKDAENLGRKAKPKENTIYLKVQTSEPSGT

Legend:
[1] = substrate: N=C(N)NCCCCN; assay: radiolabeled uptake in hOCT2-HEK293 vs wild-type HEK293 cells; format: cell-based, Homo sapiens
[2] = substrate: N=C(N)NCCCCN; assay: saturable uptake in hOCT1-HEK cells; format: cell-based, Homo sapiens

Protein | Km [1] [mM] | Km [2] [mM]
B1 | 2 | –
B2 | – | 30
